Assay results taken from article PMC4599368 (Cell reports, 2015).

B1: EBOV NP residues 1–457 (NPNTD) (domain or fragment)
chain: MDSRPQKIWMAPSLTESDMDYHKILTAGLSVQQGIVRQRVIPVYQVNNLEEICQLIIQAFEAGVDFQESADSFLLMLCLHHAYQGDYKLFLESGAVKYLEGHGFRFEVKKRDGVKRLEELLPAVSSGKNIKRTLAAMPEEETTEANAGQFLSFASLFLPKLVVGEKACLEKVQRQIQVHAEQGLIQYPTAWQSVGHMMVIFRLMRTNFLIKFLLIHQGMHMVAGHDANDAVISNSVAQARFSGLLIVKTVLDHILQKTERGVRLHPLARTAKVKNEVNSFKAALSSLAKHGEYAPFARLLNLSGVNNLEHGLFPQLSAIALGVATAHGSTLAGVNVGEQYQQLREAATEAEKQLQQYAESRELDHLGLDDQEKKILMNFHQKKNEISFQQTNAMVTLRKERLAKLTEAITAASLPKTSGHYDDDDDIPFPGPINDDDNPGHQDDDPTDSQDTTIPDV

Assays:
[1] = system: ΔNPNTD (NP 25-457) (Zaire ebolavirus (EBOV)); experiment: filter binding
SEC = target: the molecule itself; experiment: SEC

Molecule	Kd [1] [nM]	binding result (SEC)
20 nt ssRNA	620	–
B1	–	binds
